Experiments:
Experiment in all cases: IEDB peptide-MHC binding, purified MHC/competitive/radioactivity; filed as Kd, often an IC50 or EC50 that approximates it; ≥ and ≤ were set here for values at or beyond the usual limits of such assays
HLA-A*11:01 = molecular target: HLA-A*11:01
HLA-A*31:01 = molecular target: HLA-A*31:01
HLA-A*33:01 = molecular target: HLA-A*33:01
HLA-A*03:01 = molecular target: HLA-A*03:01
HLA-A*68:01 = molecular target: HLA-A*68:01
[1] = source organism: SARS coronavirus Tor2
[2] = source organism: Vaccinia virus WR
[3] = source organism: Vaccinia virus Copenhagen
[4] = source organism: Dengue virus 3 Martinique/1243/1999
[5] = source organism: Dengue virus 4 Philippines/H241/1956
[6] = source organism: Mammarenavirus machupoense
[7] = source organism: Dengue virus 2 Jamaica/1409/1983
[8] = source organism: Dengue virus 1 Brazil/97-11/1997
[9] = source organism: Mammarenavirus brazilense
[10] = source organism: Mammarenavirus guanaritoense
[11] = source organism: Dengue virus 1 Nauru/West Pac/1974

Sequence | Kd (HLA-A*11:01; [2]) [nM] | Kd (HLA-A*31:01; [2]) [nM] | Kd (HLA-A*33:01; [2]) [nM] | Kd (HLA-A*03:01; [2]) [nM] | Kd (HLA-A*68:01; [2]) [nM] | further results
KLSYGIATVR |  |  |  |  |  | Kd (HLA-A*11:01; [1]): 1420 nM; Kd (HLA-A*31:01; [1]): 278 nM; Kd (HLA-A*33:01; [1]): 15300 nM; Kd (HLA-A*03:01; [1]): 879 nM; Kd (HLA-A*68:01; [1]): 89 nM
KMLTFDVFR | 2.96 | 3.97 | 365 | 82.9 | 77.2 | 
KQLCYCPASK | 13.9 | 31 | ≥ 31100 | 27.1 | 11300 | 
KSCICYGSY | 6.88 | 418 | 364 | 437 | ≥ 29700 | 
KSIENKHQRR | 198 | 0.608 | 9320 | 11100 | 11200 | 
KSQAKKPEVR | 10800 | 299 | ≥ 37200 | ≥ 22000 | ≥ 70200 | 
KSTSPTRTWK |  |  |  |  |  | Kd (HLA-A*11:01; [3]): 21.7 nM; Kd (HLA-A*31:01; [3]): 101 nM; Kd (HLA-A*33:01; [3]): 6860 nM; Kd (HLA-A*03:01; [3]): 11.1 nM; Kd (HLA-A*68:01; [3]): 472 nM
KTNDINVRR | 30.1 | 2.24 | 16700 | 112 | 12.1 | 
KTYIDVNEEY | 777 | 1880 | ≥ 70000 | 1800 | 10500 | 
LAILFEEVMR |  |  |  |  |  | Kd (HLA-A*68:01; [4]): 29.7 nM
LFSTSAADIK | 4790 | ≥ 70000 | ≥ 70000 | 19600 | 57.8 | 
LIDTTSRELK | 162 | 147 | 716 | 38.9 | 432 | 
LIIYYQLAGY | 5120 | ≥ 25700 | ≥ 67600 | 137 | 8000 | 
LITLILSNK | 19 | 2080 | 6720 | 20.9 | 32.7 | 
LLMHLVSLY | 7.11 |  | ≥ 52500 | 2.67 | 9.95 | 
LLNRFTMTHR |  |  |  |  |  | Kd (HLA-A*31:01; [4]): 15.2 nM
LLNVTYNIK |  |  |  |  |  | Kd (HLA-A*11:01; [3]): 4830 nM; Kd (HLA-A*31:01; [3]): ≥ 77900 nM; Kd (HLA-A*33:01; [3]): ≥ 77700 nM; Kd (HLA-A*03:01; [3]): 7700 nM; Kd (HLA-A*68:01; [3]): 11300 nM
LLTDTIESAK | 84.7 | 10100 | 2340 | 190 | 667 | 
LMCHATFTTR |  |  |  |  |  | Kd (HLA-A*31:01; [5]): 12.7 nM; Kd (HLA-A*33:01; [5]): 97.1 nM
LNNSFYYMR |  |  |  |  |  | Kd (HLA-A*11:01; [6]): 5880 nM; Kd (HLA-A*31:01; [6]): 4.64 nM; Kd (HLA-A*33:01; [6]): ≥ 21700 nM; Kd (HLA-A*03:01; [6]): ≥ 78000 nM; Kd (HLA-A*68:01; [6]): 15.3 nM
LSCIRNASK | 500 | 300 | 784 | 484 | 276 | 
LSSIKSKSR | 4160 | 755 | 1570 | 3070 | 612 | 
LTDTIESAK | 125 | 8.11 | 3.04 | 1070 | 25.7 | 

Sequence | Kd (HLA-A*11:01; [2]) [nM] | Kd (HLA-A*31:01; [2]) [nM] | Kd (HLA-A*33:01; [2]) [nM] | Kd (HLA-A*03:01; [2]) [nM] | Kd (HLA-A*68:01; [2]) [nM] | further results
LVTRKCPQK | 17.3 | 1320 | 5110 | 63 | 19.3 | 
MISRMLINR |  |  |  |  |  | Kd (HLA-A*11:01; [7]): 258 nM; Kd (HLA-A*31:01; [7]): 4.37 nM; Kd (HLA-A*33:01; [7]): 9.7 nM; Kd (HLA-A*68:01; [7]): 22.7 nM
MLNIMNRRKR |  |  |  |  |  | Kd (HLA-A*31:01; [8]): ≥ 60800 nM
MSYTMCSGK |  |  |  |  |  | Kd (HLA-A*03:01; [5]): 3.04 nM; Kd (HLA-A*68:01; [5]): 5.87 nM
MVNHSTYYVH |  |  |  |  |  | Kd (HLA-A*11:01; [9]): 6280 nM; Kd (HLA-A*31:01; [9]): 544 nM; Kd (HLA-A*33:01; [9]): 3020 nM; Kd (HLA-A*03:01; [9]): 10100 nM; Kd (HLA-A*68:01; [9]): 391 nM
MWQLMYFHR |  |  |  |  |  | Kd (HLA-A*31:01; [8]): ≥ 24400 nM; Kd (HLA-A*33:01; [8]): 1.43 nM
NIKPSKENR | ≥ 30400 | 545 | 338 | 7390 | 10.5 | 
NMLNIMNRRK |  |  |  |  |  | Kd (HLA-A*03:01; source organism: Dengue virus 1 Singapore/S275/1990): 181 nM
NSTCYVFGLY | 19.5 | 3240 | 9000 | 161 | 8.95 | 
NSTTDAEACY | 17800 | ≥ 70000 | ≥ 70000 | ≥ 70100 | 7370 | 
NSYSLIRLSH |  |  |  |  |  | Kd (HLA-A*11:01; [10]): ≥ 24600 nM; Kd (HLA-A*31:01; [10]): 9770 nM; Kd (HLA-A*33:01; [10]): 3250 nM; Kd (HLA-A*03:01; [10]): 9960 nM; Kd (HLA-A*68:01; [10]): 10200 nM
NWLARVGRER |  |  |  |  |  | Kd (HLA-A*33:01; [7]): 242 nM
RKTFVELMRR |  |  |  |  |  | Kd (HLA-A*31:01; [8]): 51.2 nM
RTAIHSLYGR |  |  |  |  |  | Kd (HLA-A*11:01; [10]): 142 nM
RVSTVSQLAK |  |  |  |  |  | Kd (HLA-A*11:01; [11]): 40.3 nM; Kd (HLA-A*03:01; [11]): 6.04 nM
SIFKLTYQNK |  |  |  |  |  | Kd (HLA-A*11:01; [8]): 65.9 nM; Kd (HLA-A*03:01; [8]): 15.2 nM
SISNITTATR |  |  |  |  |  | Kd (HLA-A*31:01; [5]): 626 nM; Kd (HLA-A*33:01; [5]): 10.6 nM; Kd (HLA-A*68:01; [5]): 13.6 nM
STMPLVMAWR |  |  |  |  |  | Kd (HLA-A*11:01; [5]): 14.8 nM; Kd (HLA-A*31:01; [5]): 1.16 nM; Kd (HLA-A*33:01; [5]): 2.89 nM; Kd (HLA-A*68:01; [5]): 15.2 nM
TALAFHLTTR |  |  |  |  |  | Kd (HLA-A*31:01; [8]): ≥ 39800 nM; Kd (HLA-A*68:01; [8]): 101 nM
TVEAGRTLR |  |  |  |  |  | Kd (HLA-A*68:01; source organism: Dengue virus 2 Peru/IQT2913/1996): 13 nM
VTVASAAQR |  |  |  |  |  | Kd (HLA-A*68:01; [8]): 48.7 nM
YSMCTGKFK |  |  |  |  |  | Kd (HLA-A*11:01; [7]): 550 nM

— the Immune Epitope Database (IEDB)
